Laboratory results reported in publication PMC2712976 (The Journal of General Physiology, 2009).

Experiments:
F-actin = F-actin (UniProt P68135); assay: co-sedimentation
gel electrophoresis = molecular target: the molecule itself; assay: gel electrophoresis
CFP-SERCA1a = CFP-SERCA1a (UniProt O14983-2 1-994); assay: FRET or BRET

Molecule: first four N-terminal domains (C0-C1-motif-C2) of cardiac myosin binding protein C (domain or fragment)
- Kd (F-actin): 10 µM
- stoichiometry N (F-actin): 1 molar ratio

B1: WT phospholamban (in vitro sample) (natural protein)
chain: MEKVQYLTRSAIRRASTIEMPQQARQKLQNLFINFCLILICLLLICIIVMLL
- stoichiometry N (gel electrophoresis): 5

B2: YFP-PLB (natural protein)
chain: B1 chain
- fold higher apparent affinity relative to SERCA2a (CFP-SERCA1a): 2.6 fold
